In this assay the target is Notch on human peripheral blood CD14-positive cells (human). In words: cell-based or functional assay.

On to “Delta-1 construct composed of the human Delta-1 extracellular domain and 6 myc proteins (from UniProt O00548 18-545) (ligand)”, for which the level of HES-1 gene expression (real-time RT-PCR, ratio to GAPDH) in CD14-positive cells after 24 hours of culture amounted to 8 times.

For the origin of these results see US20060182721A1.
